Assay [1] deals with T1, human IgE-Fc (Ch2-Ch3-Ch4), minimally biotinylated (human, UniProt P01854-1 105-428, limits assumed, minimally biotinylated with EZ-Link NHS-LC-LC-biotin (sites not given)).
T1 construct: domain: Ch2-Ch3-Ch4; Captured on NeutrAvidin chip; also called IgE construct; B-IgE
Put plainly: SPR Biacore T200, KD at pH 6.0 over KD at pH 7.4. As for the experimental part:
(§1) All Biacore experiments were performed using two of the four flow cells (1&2 or 3&4) of the sensor chip in parallel. The downstream flow cell was used as analysis flow cell while the other flow cell was used as a reference surface. Thus, biotinylated IgE (B-IgE) was captured on the analysis flow cell and every purified Fab fragment was injected over both. The sensorgram from the reference flow cell was subtracted from that of the analysis flow cell.
(§2) Following capture of B-IgE, a purified Fab fragment was injected at 30 μL/min on analysis and reference flow cells in a series of injections from low to high concentration. The top concentration of Fab ranged from 30 nM to 200 nM and the dilution factor was 3-fold. Each Fab dilution was injected for 2 minutes, followed by a final dissociation time of 30 minutes after the last injection. A similar set of injections was performed with running buffer in place of Fab for double-referencing purposes (double-referencing as described in Myszka, J Mol Recognit 12: 279-284, 1999). The double-referenced sensorgrams were fit globally to a simple 1:1 Langmuir with mass transport binding model.
(§3) The experiments were performed at pH 6.0 and 7.4 using sample and running buffers of 10 mM Sodium Phosphate, 150 mM Sodium Chloride, 0.05% Tween-20, 1 mg/mL BSA, pH 6 and 10 mM Sodium Phosphate, 150 mM Sodium Chloride, 0.05% Tween-20, 1 mg/mL BSA, pH 7.4, respectively.
On the technique in general: Surface plasmon resonance follows binding to a sensor surface in real time, without labels.

Assay [2] concerns the target T1, human IgE-Fc (Ch2-Ch3-Ch4), minimally …. In words: SPR Biacore T200, kd at pH 6.0 over kd at pH 7.4. How it is done: (§4) A biotin-capture surface was prepared by immobilization of NeutrAvidin: all flow cells of a Biacore CM4 sensor chip were activated with a 1:1 (v/v) mixture of 400 mM EDC and 100 mM NHS for 7 minutes, at a flow rate of 10 μL/min. NeutrAvidin (Pierce, product #: 31000) was diluted to 100 μg/mL in 10 mM Sodium Acetate pH 4.5 and injected on all flow cells for 7 minutes at 20 μL/min. All flow cells were blocked with 100 mM Ethylenediamine in 150 mM Borate buffer pH 8.5 for 7 minutes at 10 μL/min.
as §2, §3

For assay [3] the target is unchanged. In words: SPR Biacore T200, biotin-IgE-Fc captured, Fab injected, 25 C, pH 6.0. How it is done: as §4, §2, §3
Assay [4] has the same target. In words: SPR Biacore T200, biotin-IgE-Fc captured, Fab injected, 25 C, pH 7.4. How it is done: as §1, §2, §3
Assay [5] has as its target T2, PCSK9 (species not stated, Table 7 assay) (Pan troglodytes (Chimpanzee); Homo …, UniProt A8T644 31-152; Q8NBP7 153-692).
T2 construct: kept apart from m1 and m2
Put plainly: SPR Biacore 2000, IgG on anti-human Fc, PCSK9 injected, pH 6.0. How it is done:
(§5) Affinity and kinetic parameters for PCSK9 antibodies h5A10 and 5L1721H23_{—}6L3H3 as well as PCSK9 antibody H1M300N (see US2010/0166768, e.g., at Table 7). All experiments were performed on a Biacore 2000 biosensor.
(§6) An anti-human Fc sensor chip was prepared by activating all flow cells of a Biacore CM4 sensor chip with a 1:1 (v/v) mixture of 400 mM EDC and 100 mM NHS for 7 minutes, at a flow rate of 10 μL/min. An anti-human Fc reagent (Goat F(AB′)2 Fragment to Human IgG Fc, Cappel Catalog #: 55053) was diluted to 60 μg/mL in 10 mM Sodium Acetate pH 5.0 and injected on all flow cells for 7 minutes at 20 μL/min. All flow cells were blocked with 100 mM ethylenediamine in 150 mM Borate buffer pH 8.5 for 7 minutes at 10 μL/min.
(§7) The experiments were performed at pH 6.0 and 7.4 using sample and running buffers of 10 mM Sodium Phosphate, 150 mM Sodium Chloride, 0.05% Tween-20, pH 6 and 10 mM Sodium Phosphate, 150 mM Sodium Chloride, 0.05% Tween-20, pH 7.4, respectively.

In assay [6] the target is T2, PCSK9 (species not stated, Table 7 …). Put plainly: SPR Biacore 2000, IgG on anti-human Fc, PCSK9 injected, pH 7.4. How it is done:
as §5, §6, §7

Assay [7] deals with T3, human PCSK9 (human, UniProt Q8NBP7 31-692, limits assumed).
T3 construct: also called hPCSK9; huPCSK9
Put plainly: SPR Biacore 3000, KD at pH 5.5 over KD at pH 7.4. From the text: (§8) These antibodies were expressed and purified for determination of their KD at 7.4 and their KD ratio of pH5.5/pH 7.4, as measured on a surface plasmon resonance Biacore 3000 biosensor equipped with a research-grade sensor chip using HBS-EP running buffer (Biacore AB, Uppsala, Sweden—now GE Healthcare). Rabbit polyclonal anti-Ms IgGs were amine-coupled at saturating levels onto the chip using a standard N-hydroxysuccinimide/ethyldimethylaminopropyl carbodiimide (NHS/EDC) chemistry. The buffer was switched to HBS-EP+1 mg/mL BSA+1 mg/mL CM-dextran. Full-length PCSK9 IgGs were diluted to about 15 μg/mL and captured for 1 min at 5 μL/min to give levels of about 500 RU per flow cell, leaving one blank to serve as a reference channel. […] Dissociation was monitored for 5 min. The chip was regenerated after the last injection of each titration with two 30 sec pulses of 100 mM phosphoric acid. Buffer cycles provided blanks for double-referencing the data, which were then fit globally to a simple binding model using Biaevaluation software v.4.1. Affinities were deduced from the quotient of the kinetic rate constants (KD=koff/kₒₙ).

For assay [8], the target named is T4, mouse PCSK9 (mouse, UniProt Q80W65 35-694, limits assumed).
T4 construct: also called mPCSK9; msPCK9
Put plainly: SPR Biacore 3000, KD at pH 5.5 over KD at pH 7.4.
Source text: as §8

In assay [9] the target is T3, human PCSK9. In words: SPR Biacore 3000, captured IgG, hPCSK9 injected, pH 5.5.
Source text: as §8

Assay [10] has as its target T3, human PCSK9. In words: SPR Biacore 3000, captured IgG, hPCSK9 injected, pH 7.4.
Source text: as §8

The target of assay [11] is T4, mouse PCSK9. In words: SPR Biacore 3000, captured IgG, mPCSK9 injected, pH 5.5.
Source text: as §8

Assay [12] concerns the target T4, mouse PCSK9. In words: SPR Biacore 3000, captured IgG, mPCSK9 injected, pH 7.4.
Source text: as §8

The record followed here is patent publication US20150266974A1 (RINAT NEUROSCIENCE, published 2015).

Numbering of substitutions follows the chain as printed. Names may count otherwise. A value given as a limit tells only on which side of the number the result lay.

T4 sequence (Q80W65 35-694 limits assumed): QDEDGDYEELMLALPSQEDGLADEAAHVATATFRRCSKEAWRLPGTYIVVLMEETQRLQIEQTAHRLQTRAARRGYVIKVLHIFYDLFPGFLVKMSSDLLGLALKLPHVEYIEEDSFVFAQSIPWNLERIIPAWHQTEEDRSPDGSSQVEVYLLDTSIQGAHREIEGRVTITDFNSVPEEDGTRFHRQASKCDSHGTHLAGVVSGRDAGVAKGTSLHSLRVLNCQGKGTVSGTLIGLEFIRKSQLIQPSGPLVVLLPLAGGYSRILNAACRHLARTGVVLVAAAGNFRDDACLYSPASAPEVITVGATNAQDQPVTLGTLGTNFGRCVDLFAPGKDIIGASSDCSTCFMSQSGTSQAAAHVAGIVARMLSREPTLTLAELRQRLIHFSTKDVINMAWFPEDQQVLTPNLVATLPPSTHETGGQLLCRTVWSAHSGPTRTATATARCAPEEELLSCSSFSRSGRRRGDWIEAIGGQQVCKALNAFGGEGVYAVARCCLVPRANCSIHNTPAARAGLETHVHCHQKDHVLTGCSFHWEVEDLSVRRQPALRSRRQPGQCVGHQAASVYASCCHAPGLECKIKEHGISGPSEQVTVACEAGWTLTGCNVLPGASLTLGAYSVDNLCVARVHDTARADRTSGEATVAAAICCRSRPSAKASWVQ
T3 sequence (Q8NBP7 31-692 limits assumed): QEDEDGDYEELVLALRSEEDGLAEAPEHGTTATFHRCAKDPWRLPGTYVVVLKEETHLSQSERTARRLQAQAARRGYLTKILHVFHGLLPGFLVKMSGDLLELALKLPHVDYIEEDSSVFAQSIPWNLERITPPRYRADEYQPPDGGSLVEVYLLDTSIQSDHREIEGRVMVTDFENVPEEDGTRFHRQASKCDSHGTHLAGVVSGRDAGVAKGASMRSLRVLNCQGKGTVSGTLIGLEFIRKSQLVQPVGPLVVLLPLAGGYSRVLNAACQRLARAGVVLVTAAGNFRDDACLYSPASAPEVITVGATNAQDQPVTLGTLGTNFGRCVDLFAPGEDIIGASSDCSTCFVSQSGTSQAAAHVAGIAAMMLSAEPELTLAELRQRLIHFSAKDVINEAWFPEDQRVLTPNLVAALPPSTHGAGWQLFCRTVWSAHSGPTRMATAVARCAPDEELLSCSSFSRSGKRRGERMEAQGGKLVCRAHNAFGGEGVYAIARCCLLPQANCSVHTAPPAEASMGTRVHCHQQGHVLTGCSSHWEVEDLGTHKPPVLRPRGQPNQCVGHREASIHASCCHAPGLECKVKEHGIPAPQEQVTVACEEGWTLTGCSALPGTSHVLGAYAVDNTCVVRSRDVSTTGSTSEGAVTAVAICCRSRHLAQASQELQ
T1 sequence (P01854 other isoform, or with tags, fused parts or gaps limits assumed): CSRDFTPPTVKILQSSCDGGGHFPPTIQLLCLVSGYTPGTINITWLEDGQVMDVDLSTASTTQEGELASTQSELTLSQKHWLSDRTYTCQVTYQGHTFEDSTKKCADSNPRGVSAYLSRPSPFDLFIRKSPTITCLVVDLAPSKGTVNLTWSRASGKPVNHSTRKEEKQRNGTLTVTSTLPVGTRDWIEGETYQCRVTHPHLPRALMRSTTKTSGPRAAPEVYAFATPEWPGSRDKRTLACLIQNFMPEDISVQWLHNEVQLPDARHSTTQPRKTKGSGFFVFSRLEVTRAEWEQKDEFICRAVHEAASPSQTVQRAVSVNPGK
T2 sequence (A8T644 31-152 limits assumed, chain 1 of 2): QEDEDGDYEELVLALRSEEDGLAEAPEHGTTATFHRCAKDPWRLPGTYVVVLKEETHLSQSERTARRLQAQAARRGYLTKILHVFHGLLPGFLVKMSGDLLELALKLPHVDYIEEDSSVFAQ
T2 sequence (A8T644 other isoform, or with tags, fused parts or gaps limits assumed, chain 2 of 2): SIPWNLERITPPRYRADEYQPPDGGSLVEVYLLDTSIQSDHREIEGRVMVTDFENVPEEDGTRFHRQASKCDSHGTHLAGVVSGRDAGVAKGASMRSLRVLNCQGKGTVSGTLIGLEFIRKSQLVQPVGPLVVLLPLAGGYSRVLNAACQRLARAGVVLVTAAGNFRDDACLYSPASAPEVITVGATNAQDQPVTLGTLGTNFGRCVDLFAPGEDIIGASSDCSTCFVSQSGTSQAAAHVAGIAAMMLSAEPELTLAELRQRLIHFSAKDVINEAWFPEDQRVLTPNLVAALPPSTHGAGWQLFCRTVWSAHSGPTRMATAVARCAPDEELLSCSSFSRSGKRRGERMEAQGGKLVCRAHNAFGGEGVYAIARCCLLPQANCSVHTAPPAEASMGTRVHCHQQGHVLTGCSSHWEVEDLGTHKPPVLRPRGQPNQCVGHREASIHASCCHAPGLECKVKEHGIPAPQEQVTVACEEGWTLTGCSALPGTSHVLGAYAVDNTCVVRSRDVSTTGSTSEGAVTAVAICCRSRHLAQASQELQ

B1: anti-IgE antibody 5.948-H100Y (Fab) (Fab, V domains shown)
VH: QVQLVQSGAEVKKPGASVKVSCKASGYTFTSYDINWVRQATGQGLEWMGWMDPNSGNTGYAQKFQGRVTMTRNTSISTAYMELSSLRSEDTAVYYCARGYYDSDGYYSFSGMDVWGQGTTVTVSS
VL: not shown
notes: Injected as purified Fab fragment
In the case of B1, the “KD ratio pH 6.0/pH 7.4” value in assay [1] is 3.1. For the same molecule, in assay [2], the “kd ratio pH 6/pH 7.4” value was 3.03. In assay [3], the Kd stood at 0.149 nM, the koff turned out to be 0.000152 s⁻¹ and the kon is 1.02e+06 M⁻¹ s⁻¹. Further, in assay [4], binding was characterised by a dissociation constant (Kd) of 0.0487 nM, the koff worked out at 5.01e-05 s⁻¹ and the association rate constant (kon) amounted to 1.03e+06 M⁻¹ s⁻¹.

B2: H17H25H100Y (Fab) (Fab, V domains shown)
VH: B1 VH with Y32H, N54H
VL: not shown
B2: in assay [1], the “KD ratio pH 6.0/pH 7.4” value came to 8.6. In addition, the “kd ratio pH 6/pH 7.4” value in [2] amounted to 8.63. In [3], the Kd came to 16.3 nM, the koff was 0.00364 s⁻¹ and the kon is 223000 M⁻¹ s⁻¹. In assay [4], this molecule registered a Kd of 1.9 nM, a koff of 0.000422 s⁻¹ and a kon of 222000 M⁻¹ s⁻¹.

B3: H25H100Y (Fab) (Fab, V domains shown)
VH: B1 VH with N54H
VL: not shown
For B3, in assay [1], the “KD ratio pH 6.0/pH 7.4” value came to 8. In [2], the “kd ratio pH 6/pH 7.4” value came to 7.66. In [3], this molecule displayed a Kd of 5.08 nM, a koff of 0.00151 s⁻¹ and a kon of 298000 M⁻¹ s⁻¹. In [4], this molecule yielded a Kd of 0.634 nM, a koff of 0.000197 s⁻¹ and a kon of 311000 M⁻¹ s⁻¹.

B4: L38H312H100Y (Fab) (Fab, V domains shown)
VH: B1 VH with S110H
VL: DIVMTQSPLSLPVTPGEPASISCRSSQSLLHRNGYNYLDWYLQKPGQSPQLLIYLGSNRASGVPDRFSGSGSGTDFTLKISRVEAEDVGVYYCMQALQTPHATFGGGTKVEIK
B4: in assay [1], the “KD ratio pH 6.0/pH 7.4” value was determined as 7. The “kd ratio pH 6/pH 7.4” value in assay [2] amounted to 11.3. In [3], this molecule registered a Kd of 37.1 nM, a koff of 0.0122 s⁻¹ and a kon of 329000 M⁻¹ s⁻¹. In assay [4], the Kd was determined as 5.33 nM, the koff is 0.00108 s⁻¹ and the kon worked out at 202000 M⁻¹ s⁻¹.

B5: h5A10 (antibody, V domains shown)
VH: QVQLVQSGAEVKKPGASVKVSCKASGYTFTSYYMHWVRQAPGQGLEWMGEINPSGGRTNYNEKFKSRVTMTRDTSTSTVYMELSSLRSEDTAVYYCARERPLYAMDYWGQGTTVTVSS
VL: DIQMTQSPSSLSASVGDRVTITCKASQDVSTAVAWYQQKPGKAPKLLIYSASYRYTGVPSRFSGSGSGTDFTFTISSLQPEDIATYYCQQRYSTPRTFGQGTKLEIK
notes: In the histidine scan it was used as a Fab with a histidine tag at the C-terminus of CH1; also called 5A10 hu frame
With B5, in assay [5], the Kd was under 0.181 nM, the koff was under 6e-05 s⁻¹, the kon worked out at 331000 M⁻¹ s⁻¹ and the t1/2 is under 3.22 h. In [6], the Kd was under 0.249 nM, the koff is under 6e-05 s⁻¹, the kon stood at 241000 M⁻¹ s⁻¹ and the t1/2 was under 3.22 h.

B6: 6L21H2335 (antibody, V domains shown)
VH: B5 VH with N52H, S54F, Y103H, M105S, Y107L
VL: B5 VL with K24R, D28G, V29I, T31S, V33L, S50H, T94L, P95W
Consider B6, for which the results for the “KD ratio pH 5.5/7.4” value in assay [7] and in [8] were 2.9 and 2.4, respectively. The Kd in [9] is 363 nM; in [10] it was 126 nM; in assay [11] it was 451 nM; in assay [12], 191 nM. The koff was 0.238 s⁻¹ in assay [9], 0.00733 s⁻¹ in assay [10], 0.237 s⁻¹ in assay [11] and 0.0172 s⁻¹ in assay [12]. For the same molecule, the kon is 655000 M⁻¹ s⁻¹ in assay [9], 58100 M⁻¹ s⁻¹ in assay [10], 526000 M⁻¹ s⁻¹ in assay [11] and 89900 M⁻¹ s⁻¹ in assay [12].

A word on the Kd: it is the equilibrium constant for the complex coming apart. As a reminder, the koff is a measure of how fast the partners let go of each other. As a reminder, the kon is a measure of how fast the partners come together. Read a high kon as faster complex formation.
